The supplement of paper PMC7125110
± gives the standard error. Fewer inactive variants are shown than the library holds.

B1: glmS ribozyme (parent)
chain: AUAAAAGCGCCAGAACUACAGAAAUGUAGUUGACGAGGAGGAGGUUUAUCGAAUUUUCGGCGGAUGCCUCCAAA

What was measured:
Conditions in all cases: with glucosamine-6-phosphate
glucosamine-6-phosphate [1] = variants of: B1; experiment: self-cleavage kobs at 40 uM GlcN6P; higher = faster cleavage; RNA array
Outline: (§1)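 Barcoded glmS ribozyme variants on sequenced MiSeq chips were transcribed in situ by E. coli RNA polymerase and tracked through a hybridised Cy3 probe at 37 °C. Glucosamine-6-phosphate (40 μM to 10 mM) in HEPES/KCl/Mg(OAc)2 buffer was flowed in, and tiles were imaged over ~14 h. Signals were normalised to baseline and to non-cleaving reference variants; per-tile medians were fit to one- or two-exponential decays to give kobs. kcat and KM came from weighted Michaelis–Menten fits across concentrations.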

glucosamine-6-phosphate [2] = variants of: B1; experiment: self-cleavage kobs at 10000 uM GlcN6P; higher = faster cleavage; RNA array
Outline: as §1

glucosamine-6-phosphate [3] = variants of: B1; experiment: self-cleavage kobs at 160 uM GlcN6P; higher = faster cleavage; RNA array
Outline: as §1

glucosamine-6-phosphate [4] = variants of: B1; experiment: self-cleavage kobs at 640 uM GlcN6P; higher = faster cleavage; RNA array
Outline: as §1

glucosamine-6-phosphate [5] = variants of: B1; experiment: self-cleavage kobs at 2500 uM GlcN6P; higher = faster cleavage; RNA array
Outline: as §1

Variant	self-cleavage kobs at 40 uM GlcN6P (glucosamine-6-phosphate [1]) [s⁻¹]	self-cleavage kobs at 10000 uM GlcN6P (glucosamine-6-phosphate [2]) [s⁻¹]	self-cleavage kobs at 160 uM GlcN6P (glucosamine-6-phosphate [3]) [s⁻¹]	self-cleavage kobs at 640 uM GlcN6P (glucosamine-6-phosphate [4]) [s⁻¹]	self-cleavage kobs at 2500 uM GlcN6P (glucosamine-6-phosphate [5]) [s⁻¹]
A15C A39G U56G	4.71e-05 ± 1.6e-05	0.00218 ± 0.00029	–	–	–
A14U C61A	< 1e-05	< 1e-05	–	–	–
A15G G38A A42G	< 1e-05	–	< 1e-05	< 1e-05	–
A14G G29A	0.000403 ± 6.2e-05	0.0317 ± 0.0076	–	0.00394 ± 0.00079	0.00353 ± 0.00081
A14C A52C	< 1e-05	< 1e-05	< 1e-05	< 1e-05	–
A14U C50U G59C C70U	< 1e-05	–	–	–	–
G13U G41A U49G U55G	< 1e-05	–	–	–	< 1e-05
G13U C61U	< 1e-05	< 1e-05	< 1e-05	< 1e-05	–
G13C G51C	< 1e-05	< 1e-05	–	< 1e-05	< 1e-05
A14U U55A	0.000252 ± 3.9e-05	0.00696 ± 0.0011	–	–	–
A15G G32A	6.35e-05 ± 1.4e-05	0.00311 ± 0.00077	0.000114 ± 2.3e-05	0.000628 ± 7.7e-05	0.00103 ± 0.00018
G13U G60C	< 1e-05	< 1e-05	–	–	–
A15G C34U	< 1e-05	< 1e-05	< 1e-05	< 1e-05	< 1e-05
A14U C34A G35C U45A C67U	< 1e-05	–	–	–	–
C16G G35A U56G G63C	< 1e-05	< 1e-05	–	–	–
G13U U45C	< 1e-05	6.21e-05 ± 1.4e-05	< 1e-05	–	–
A15G U31A A36U	< 1e-05	–	–	–	–
A14G U56C G59U	< 1e-05	2.7e-05 ± 1.3e-05	–	–	–
C16G G37A G40A A48G	< 1e-05	< 1e-05	–	–	–
C16A A48G	< 1e-05	< 1e-05	–	< 1e-05	< 1e-05
A14G A48C C68A	< 1e-05	< 1e-05	< 1e-05	–	–
A15U G29U U54G	7.25e-05 ± 1.8e-05	0.00243 ± 0.00048	–	–	–

Variant	self-cleavage kobs at 40 uM GlcN6P (glucosamine-6-phosphate [1]) [s⁻¹]	self-cleavage kobs at 10000 uM GlcN6P (glucosamine-6-phosphate [2]) [s⁻¹]	self-cleavage kobs at 160 uM GlcN6P (glucosamine-6-phosphate [3]) [s⁻¹]	self-cleavage kobs at 640 uM GlcN6P (glucosamine-6-phosphate [4]) [s⁻¹]	self-cleavage kobs at 2500 uM GlcN6P (glucosamine-6-phosphate [5]) [s⁻¹]
G13U G32A G37C A42C	< 1e-05	< 1e-05	< 1e-05	–	< 1e-05
C16A G38C	< 1e-05	< 1e-05	< 1e-05	< 1e-05	–
C16G G29U G32A	7.82e-05 ± 1.9e-05	0.0042 ± 0.0009	–	–	–
C16G C34G G40C U55A C58U U69A	< 1e-05	< 1e-05	–	–	–
G13U G38U C68G	0.00012 ± 4.3e-05	7.63e-05 ± 1.8e-05	0.000111 ± 2.7e-05	0.000157 ± 4.9e-05	6.64e-05 ± 2.9e-05
A15U G35U	< 1e-05	< 1e-05	< 1e-05	< 1e-05	< 1e-05
A14C A15U U56G	0.000225 ± 6.3e-05	0.00809 ± 0.0027	–	0.00145 ± 0.00027	0.00238 ± 0.00057
A15G C70A	5.87e-05 ± 7.8e-06	0.00111 ± 0.00023	9.45e-05 ± 1.1e-05	0.000211 ± 2.2e-05	0.000382 ± 4e-05
A15G C70U	0.00115 ± 0.00011	0.0598 ± 0.012	0.00217 ± 0.00032	0.0045 ± 0.00057	0.0168 ± 0.0062
A14U U56G	0.000924 ± 0.00012	0.0462 ± 0.0095	0.00383 ± 0.00078	0.0066 ± 0.0011	0.0108 ± 0.0026
A14C G32A A52U	< 1e-05	9.78e-05 ± 1.9e-05	–	–	5.9e-05 ± 2.1e-05
A15C U49A	< 1e-05	< 1e-05	–	< 1e-05	–
A15U G60A C61A G66U	< 1e-05	–	–	–	–
A14C A64G U65A C70A C71G	< 1e-05	< 1e-05	–	–	–
A15C G38A C67G	< 1e-05	–	–	–	–
A14G U56C C61G	< 1e-05	< 1e-05	–	–	–
A14G C50U G66U C68A	5.56e-05 ± 2.7e-05	4.35e-05 ± 1.8e-05	–	–	–
G13C U31A G51A	< 1e-05	–	–	–	–
A14G C19A A20G G21A G60A	< 1e-05	–	–	–	–
A14U C16U C70U	0.000248 ± 7.9e-05	0.00877 ± 0.0026	–	–	0.00092 ± 0.0002
A15C G41U C70A	0.000696 ± 0.00013	–	–	–	–
A14C U56G	0.00282 ± 0.00046	0.0693 ± 0.022	0.00922 ± 0.003	0.0201 ± 0.0065	0.00838 ± 0.0029
